{
  "source": "patent US20100081620A1",
  "key": {"ADAM 10 on IMPE cells": {"biological_target": "ADAM 10 on IMPE cells", "assay": "cell-based or functional assay"}, "[1]": {"biological_target": "T1, ADAM 8 catalytic domain (mouse) (mouse) (UniProt Q05910)", "T1 sequence (looked up)": "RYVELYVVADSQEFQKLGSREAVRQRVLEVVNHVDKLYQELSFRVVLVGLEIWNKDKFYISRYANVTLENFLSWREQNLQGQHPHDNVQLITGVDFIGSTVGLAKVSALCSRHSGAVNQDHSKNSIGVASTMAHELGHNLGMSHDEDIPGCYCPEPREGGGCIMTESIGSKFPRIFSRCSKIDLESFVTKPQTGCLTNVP", "assay": "enzyme inhibition, fluorescamine assay with Dnp peptide substrate"}, "[2]": {"biological_target": "human ADAM 9 catalytic/disintegrin domains (human) (UniProt Q13443)", "sequence (Q13443 206-697 limits assumed)": "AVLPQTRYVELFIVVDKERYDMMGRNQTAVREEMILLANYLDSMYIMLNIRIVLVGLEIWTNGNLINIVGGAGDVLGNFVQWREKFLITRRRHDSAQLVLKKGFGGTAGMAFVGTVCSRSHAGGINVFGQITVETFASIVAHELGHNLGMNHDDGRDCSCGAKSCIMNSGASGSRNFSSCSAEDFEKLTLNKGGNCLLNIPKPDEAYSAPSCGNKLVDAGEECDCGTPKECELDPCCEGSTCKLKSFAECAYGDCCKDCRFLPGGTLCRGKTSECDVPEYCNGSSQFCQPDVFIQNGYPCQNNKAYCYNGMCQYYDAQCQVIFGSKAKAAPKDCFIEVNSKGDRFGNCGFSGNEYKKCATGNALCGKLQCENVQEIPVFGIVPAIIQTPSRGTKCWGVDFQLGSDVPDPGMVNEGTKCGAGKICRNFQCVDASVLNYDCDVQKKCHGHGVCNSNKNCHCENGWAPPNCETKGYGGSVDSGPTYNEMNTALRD", "assay": "enzyme inhibition, fluorescent peptide substrate"}, "[3]": {"biological_target": "TACE catalytic domain (human) (human) (UniProt P78536)", "sequence (P78536 215-477 limits assumed)": "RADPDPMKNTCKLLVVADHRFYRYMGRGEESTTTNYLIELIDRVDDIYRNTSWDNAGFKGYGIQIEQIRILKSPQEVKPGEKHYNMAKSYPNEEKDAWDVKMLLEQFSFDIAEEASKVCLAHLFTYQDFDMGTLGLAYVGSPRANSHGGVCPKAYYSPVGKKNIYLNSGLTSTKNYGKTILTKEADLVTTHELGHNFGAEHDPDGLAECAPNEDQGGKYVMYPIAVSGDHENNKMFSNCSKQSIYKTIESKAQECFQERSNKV", "assay": "enzyme inhibition, fluorescent peptide substrate"}, "MMP 1": {"biological_target": "MMP 1", "sequence (P03956 100-469)": "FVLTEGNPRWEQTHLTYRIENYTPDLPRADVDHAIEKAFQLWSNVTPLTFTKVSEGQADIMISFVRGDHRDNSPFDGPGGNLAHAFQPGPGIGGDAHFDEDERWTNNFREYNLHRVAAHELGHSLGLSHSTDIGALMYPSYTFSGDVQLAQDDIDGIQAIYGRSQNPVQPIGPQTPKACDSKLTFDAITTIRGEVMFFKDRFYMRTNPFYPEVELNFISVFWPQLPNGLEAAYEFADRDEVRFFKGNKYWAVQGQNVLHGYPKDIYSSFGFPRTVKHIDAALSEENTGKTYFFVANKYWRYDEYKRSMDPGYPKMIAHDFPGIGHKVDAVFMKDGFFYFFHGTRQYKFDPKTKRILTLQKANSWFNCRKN", "assay": "enzyme inhibition, fluorescent peptide substrate"}, "MMP 14": {"biological_target": "MMP 14", "assay": "enzyme inhibition, fluorescent peptide substrate"}, "[4]": {"biological_target": "Human ADAM10 protease containing the catalytic/disintegrin domains (human) (UniProt O14672)", "sequence (O14672 214-672 limits assumed)": "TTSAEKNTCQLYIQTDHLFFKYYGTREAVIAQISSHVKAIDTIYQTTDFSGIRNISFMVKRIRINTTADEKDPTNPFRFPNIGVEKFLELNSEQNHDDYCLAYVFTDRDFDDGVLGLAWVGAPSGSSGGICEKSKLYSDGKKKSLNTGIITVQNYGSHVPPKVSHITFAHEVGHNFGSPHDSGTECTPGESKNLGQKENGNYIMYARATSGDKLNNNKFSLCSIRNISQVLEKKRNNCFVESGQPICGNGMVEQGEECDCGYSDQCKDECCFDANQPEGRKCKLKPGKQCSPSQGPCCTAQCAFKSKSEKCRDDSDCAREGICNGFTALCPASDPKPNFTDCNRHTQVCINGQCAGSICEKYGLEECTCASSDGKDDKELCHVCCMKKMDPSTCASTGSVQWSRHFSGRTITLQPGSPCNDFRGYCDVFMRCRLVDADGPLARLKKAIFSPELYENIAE", "assay": "enzyme inhibition, fluorescent peptide substrate"}, "MMP 3": {"biological_target": "MMP 3", "sequence (P08254 100-477)": "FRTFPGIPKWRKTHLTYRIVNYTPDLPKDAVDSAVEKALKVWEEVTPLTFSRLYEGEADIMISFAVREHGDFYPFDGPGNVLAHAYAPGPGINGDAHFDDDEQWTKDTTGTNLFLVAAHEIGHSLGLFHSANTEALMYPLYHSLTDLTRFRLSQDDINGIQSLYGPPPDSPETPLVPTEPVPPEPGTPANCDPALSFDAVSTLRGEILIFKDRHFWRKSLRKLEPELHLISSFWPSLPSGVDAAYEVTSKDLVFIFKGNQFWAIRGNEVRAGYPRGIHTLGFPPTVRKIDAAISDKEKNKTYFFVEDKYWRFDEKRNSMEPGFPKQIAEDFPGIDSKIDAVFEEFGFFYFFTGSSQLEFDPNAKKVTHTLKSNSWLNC", "assay": "enzyme inhibition, fluorescent peptide substrate"}, "MMP 13": {"biological_target": "MMP 13", "assay": "enzyme inhibition, fluorescent peptide substrate"}, "[5]": {"biological_target": "human ADAM 9 catalytic/disintegrin domains (human) (UniProt Q13443)", "assay": "enzyme inhibition, fluorescent peptide substrate", "remark": "listed apart in the source"}, "[6]": {"biological_target": "Human TACE protease containing the catalytic/disintegrin domains (human) (UniProt P78536)", "sequence (P78536 215-671 limits assumed)": "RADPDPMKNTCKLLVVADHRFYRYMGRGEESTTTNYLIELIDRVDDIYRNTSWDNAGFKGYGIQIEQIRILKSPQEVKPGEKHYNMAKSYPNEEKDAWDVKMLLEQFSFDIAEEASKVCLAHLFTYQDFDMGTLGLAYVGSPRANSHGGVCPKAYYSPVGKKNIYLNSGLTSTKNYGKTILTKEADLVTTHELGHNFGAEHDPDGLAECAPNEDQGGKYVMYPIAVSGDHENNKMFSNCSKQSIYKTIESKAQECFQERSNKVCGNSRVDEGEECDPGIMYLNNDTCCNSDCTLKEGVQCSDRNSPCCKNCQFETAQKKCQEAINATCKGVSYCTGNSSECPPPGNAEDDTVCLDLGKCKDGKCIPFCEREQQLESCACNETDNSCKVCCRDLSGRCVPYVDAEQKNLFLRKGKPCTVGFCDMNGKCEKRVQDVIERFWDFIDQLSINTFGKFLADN", "assay": "enzyme inhibition, fluorescent peptide substrate"}, "MMP 2": {"biological_target": "MMP 2", "sequence (P08253 110-660)": "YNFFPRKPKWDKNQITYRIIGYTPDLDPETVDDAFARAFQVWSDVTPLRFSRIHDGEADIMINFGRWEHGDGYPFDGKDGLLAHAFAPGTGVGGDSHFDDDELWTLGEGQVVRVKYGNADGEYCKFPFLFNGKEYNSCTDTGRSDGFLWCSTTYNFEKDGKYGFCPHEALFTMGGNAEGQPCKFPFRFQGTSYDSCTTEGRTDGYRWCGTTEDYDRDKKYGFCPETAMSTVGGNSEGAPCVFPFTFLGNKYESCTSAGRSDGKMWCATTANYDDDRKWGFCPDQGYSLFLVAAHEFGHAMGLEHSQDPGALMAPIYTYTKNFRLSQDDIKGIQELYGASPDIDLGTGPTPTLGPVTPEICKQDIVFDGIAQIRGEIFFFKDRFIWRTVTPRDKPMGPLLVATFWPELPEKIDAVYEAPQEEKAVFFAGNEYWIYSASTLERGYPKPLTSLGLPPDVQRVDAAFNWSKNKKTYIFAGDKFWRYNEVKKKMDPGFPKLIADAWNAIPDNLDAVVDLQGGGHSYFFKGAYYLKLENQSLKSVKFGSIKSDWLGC", "assay": "enzyme inhibition, fluorescent peptide substrate"}, "MMP 9": {"biological_target": "MMP 9", "sequence (P14780 107-707)": "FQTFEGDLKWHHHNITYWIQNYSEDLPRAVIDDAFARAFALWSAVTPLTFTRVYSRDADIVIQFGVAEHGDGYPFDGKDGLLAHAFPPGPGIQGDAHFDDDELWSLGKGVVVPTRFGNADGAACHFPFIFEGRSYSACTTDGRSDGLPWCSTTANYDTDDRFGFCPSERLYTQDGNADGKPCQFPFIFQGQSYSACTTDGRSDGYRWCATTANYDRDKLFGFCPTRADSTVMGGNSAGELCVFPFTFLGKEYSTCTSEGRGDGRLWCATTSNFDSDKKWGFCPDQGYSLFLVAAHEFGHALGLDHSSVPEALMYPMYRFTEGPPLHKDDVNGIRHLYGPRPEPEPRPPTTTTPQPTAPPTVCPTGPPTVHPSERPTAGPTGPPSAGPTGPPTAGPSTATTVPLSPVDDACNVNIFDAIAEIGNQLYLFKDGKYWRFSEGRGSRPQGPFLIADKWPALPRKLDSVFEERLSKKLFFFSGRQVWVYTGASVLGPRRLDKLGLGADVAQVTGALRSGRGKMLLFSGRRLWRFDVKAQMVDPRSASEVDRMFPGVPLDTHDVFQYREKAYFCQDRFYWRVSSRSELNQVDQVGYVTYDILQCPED", "assay": "enzyme inhibition, fluorescent peptide substrate"}, "[7]": {"biological_target": "mouse ADAM 10 catalytic domain (mouse) (UniProt O35598)", "sequence (O35598 215-457 limits assumed)": "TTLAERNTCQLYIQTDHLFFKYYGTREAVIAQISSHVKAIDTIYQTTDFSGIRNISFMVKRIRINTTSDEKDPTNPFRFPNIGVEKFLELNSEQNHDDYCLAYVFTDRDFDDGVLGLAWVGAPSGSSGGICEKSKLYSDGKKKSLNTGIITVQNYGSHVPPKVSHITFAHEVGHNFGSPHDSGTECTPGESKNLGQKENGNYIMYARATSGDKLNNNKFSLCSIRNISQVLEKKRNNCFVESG", "assay": "enzyme inhibition ('unpublished observation')"}, "[8]": {"biological_target": "ADAM 10 protein on Ramos cells, U937 cells and B cells", "assay": "cell-based or functional assay"}, "[9]": {"biological_target": "Human TACE protease containing the catalytic/disintegrin domains (human) (UniProt P78536)", "assay": "cell-based or functional assay"}},
  "note": "Read-outs that look alike come from different tables or passages of the source.",
  "data": [
    {"substance": "ADAM10 prodomain (betacellulin shedding assay, construct not specified)", "values": [
      {"measurement": "inhibition of calcium ionophore induced betacellulin shedding (BTC ELISA)", "setting": "ADAM 10 on IMPE cells", "value": "67 % (at 15 µM)"},
      {"measurement": "inhibition of calcium ionophore induced betacellulin shedding (BTC ELISA) (% (at 1.5 µM))", "setting": "ADAM 10 on IMPE cells", "value": 25},
      {"measurement": "inhibition of constitutive betacellulin shedding (BTC ELISA)", "setting": "ADAM 10 on IMPE cells", "value": "90 % (at 15 µM)"},
      {"measurement": "inhibition of constitutive betacellulin shedding (BTC ELISA) (% (at 1.5 µM))", "setting": "ADAM 10 on IMPE cells", "value": 75}
    ]},
    {"substance": "C173S ProADAM 10 23-213 (C-terminal His tag) (from UniProt O35598 23-213)", "values": [
      {"measurement": "Ki", "setting": "[1]", "value": "> 10", "unit": "µM"},
      {"measurement": "Ki", "setting": "[2]", "value": 1, "unit": "µM"},
      {"measurement": "Ki", "setting": "[3]", "value": "> 3", "unit": "µM"},
      {"measurement": "Ki", "setting": "MMP 1", "value": "> 2", "unit": "µM"},
      {"measurement": "Ki", "setting": "MMP 14", "value": "> 2", "unit": "µM"},
      {"measurement": "Ki", "setting": "[4]", "value": 0.036, "unit": "µM"},
      {"measurement": "Ki", "setting": "MMP 3", "value": "> 2", "unit": "µM"},
      {"measurement": "Ki", "setting": "MMP 13", "value": "> 2", "unit": "µM"},
      {"measurement": "Ki", "setting": "[5]", "value": "> 1", "unit": "µM"},
      {"measurement": "Ki", "setting": "[6]", "value": "> 3", "unit": "µM"},
      {"measurement": "Ki", "setting": "MMP 2", "value": "> 2", "unit": "µM"},
      {"measurement": "Ki", "setting": "MMP 9", "value": "> 2", "unit": "µM"},
      {"measurement": "Ki", "setting": "[7]", "value": 0.017, "unit": "µM"},
      {"measurement": "inhibition of CD23 shedding in Ramos cells (soluble CD23 ELISA)", "setting": "[8]", "value": 30, "unit": "%"},
      {"measurement": "inhibition of CD23 shedding in U937 cells (soluble CD23 ELISA)", "setting": "[8]", "value": 30, "unit": "%"}
    ]},
    {"substance": "Pro ADAM 17 (mouse) (from UniProt Q9Z0F8 18-214)", "values": [
      {"measurement": "prodomain inhibition of enzyme activity (percent)", "setting": "[9]", "value": 0, "unit": "%"}
    ]}
  ]
}
